Assay results: patent US20240182572A1 (OSE IMMUNOTHERAPEUTICS, published 2024)

How the values were obtained:
[1] = target: T1, biotinylated Human PD1 (AcroBiosystems, reference EP-101) (human, UniProt Q15116 25-167, limits assumed, biotinylated (site not stated)); assay: competitive ELISA: hPDL1 immobilized, biotinylated human PD1 at 0.66 µg/ml mixed with the antibody, streptavidin detection
T1 construct: Kit reagent; also called Biotin-PD-1Fc; not shown: Fc part, named only as 'Biotin-PD-1Fc'
Method: To measure antagonist activity of the bifunctional antibody, a competitive ELISA assay was performed by PD-1:PD-L1 Inhibitor Screening ELISA Assay Pair (AcroBiosystems; USA; reference EP-101). In this assay, recombinant hPDL1 was immobilized on plastic at 2 μg/ml in PBS pH 7.4 buffer.
Competitive ELISA assay was performed by PD-1:PD-L1 Inhibitor Screening ELISA Assay Pair (Acro Biosystems; USA; reference EP-101). In this assay, recombinant hPDL1 was immobilized on plastic at 2 μg/ml in PBS pH 7.4 buffer.

[2] = target: T2, Recombinant hPD1 (Sino Biologicals, reference 10377-H08H) (human, UniProt Q15116 25-167); assay: ELISA, recombinant hPD1 immobilized, detection with peroxidase-labeled anti-human IgG
T2 construct: Bought recombinant protein; also called Human recombinant PD-1 (rPD1) protein; human PD-1
T2 sequence (Q15116 25-167 limits assumed): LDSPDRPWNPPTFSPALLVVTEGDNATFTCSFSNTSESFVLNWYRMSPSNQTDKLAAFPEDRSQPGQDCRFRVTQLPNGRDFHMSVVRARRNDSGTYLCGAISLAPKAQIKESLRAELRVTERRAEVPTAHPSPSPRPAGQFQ
Method: Recombinant hPD1 (Sino Biologicals, Beijing, China; reference 10377-H08H) was immobilized on plastic at […] in carbonate buffer (pH 9.2) and purified antibody was added to measure binding.
For activity ELISA assay, recombinant hPD1 (Sino Biologicals, Beijing, China; reference 10377-H08H) was immobilized on plastic at 0.5 μg/ml in carbonate buffer (pH 9.2) and purified antibody were added to measure binding.

T1 sequence (Q15116 25-167 limits assumed): as above

B1: anti PD-1*1/SIRPg*1 (bispecific antibody, human IgG1, kappa, N297A)
chain: DKTHTCPPCPAPELLGGPSVFLFPPKPKDTLMISRTPEVTCVVVDVSHEDPEVKFNWYVDGVEVHNAKTKPREEQYASTYRVVSVLTVLHQDWLNGKEYKCKVSNKALPAPIEKTISKAKGQPREPQVYTLPPCRDELTKNQVSLWCLVKGFYPSDIAVEWESNGQPENNYKTTPPVLDSDGSFFLYSKLTVDKSRWQQGNVFSCSVMHEALHNHYTQKSLSLSPGK
heavy: not shown
light: DVVMTQSPLSLPVTLGQPASISCRSSQSLVHANTNTYLEWYQQRPGQSPRLLIYKVSNRFSGVPDRFSGSGSGTDFTLKISRVEAEDVGVYYCFQGTHVPNTFGQGTKLEIKRTVAAPSVFIFPPSDEQLKSGTASVVCLLNNFYPREAKVQWKVDNALQSGNSQESVTEQDSKDSTYSLSSTLTLSKADYEKHKVYACEVTHQGLSSPVTKSFNRGEC
notes: IgG1 N298A isotype, knob-into-hole; also called anti-PD-1*1/SIRP*1; Anti PD-1*1 SIRP*1
- IC50 [1]: 6.9 nM
- EC50 [2]: 0.33 nM
